Reference: patent publication US20210403601A1 (FAPON BIOTECH, published 2021)
Residue numbers refer to the chain shown, from its start. Each block holds one binder with its values, some of them ahead of it.

Molecular target: T1, Taq DNA polymerase (Thermus aquaticus, UniProt P19821 1-832)
T1 construct: also called Taq enzyme; Taq DNA enzyme
Test: AMC sensor, antibody immobilised

T1 sequence (P19821 whole entry): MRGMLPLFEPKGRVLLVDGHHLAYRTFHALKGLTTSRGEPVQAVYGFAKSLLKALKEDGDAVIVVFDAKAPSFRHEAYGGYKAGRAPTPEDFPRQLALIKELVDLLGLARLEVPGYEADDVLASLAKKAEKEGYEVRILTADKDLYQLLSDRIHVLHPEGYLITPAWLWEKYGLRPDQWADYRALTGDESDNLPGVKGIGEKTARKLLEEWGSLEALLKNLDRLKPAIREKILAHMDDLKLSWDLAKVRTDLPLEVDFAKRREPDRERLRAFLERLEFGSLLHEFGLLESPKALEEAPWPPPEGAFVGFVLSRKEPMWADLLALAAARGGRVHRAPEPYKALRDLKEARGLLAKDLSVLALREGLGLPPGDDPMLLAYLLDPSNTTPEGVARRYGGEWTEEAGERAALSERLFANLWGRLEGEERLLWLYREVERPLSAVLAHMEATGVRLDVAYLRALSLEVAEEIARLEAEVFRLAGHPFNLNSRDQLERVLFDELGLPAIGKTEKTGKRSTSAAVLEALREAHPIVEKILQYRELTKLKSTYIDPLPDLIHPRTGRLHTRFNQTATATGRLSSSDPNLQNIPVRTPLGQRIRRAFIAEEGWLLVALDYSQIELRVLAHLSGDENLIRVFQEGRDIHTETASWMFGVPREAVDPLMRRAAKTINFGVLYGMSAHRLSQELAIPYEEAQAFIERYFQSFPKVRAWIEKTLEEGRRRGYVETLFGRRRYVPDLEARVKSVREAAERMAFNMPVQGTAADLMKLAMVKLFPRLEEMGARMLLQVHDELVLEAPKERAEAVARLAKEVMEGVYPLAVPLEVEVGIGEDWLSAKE

Kd: 0.491 nM | koff: 1.58e-05 s⁻¹ | kon: 32200 M⁻¹ s⁻¹
B1: Mutation 1-1 (antibody, V domains shown)
VH: QVQLQQPGAELVKPGASVRLSCQTSVDTFTTYYIYWVKQRPGEGLEWIGGINPTSNPVFNEKFKSKATLTVDTSSSTAYMQLSSLTSVDSAVYYCTRSIVRRGYYFDYWGQGTALTVSS
VL: DIQMTQTTSSLSASLGDRVTISCRASQDINNYVNWYQQKPDGTIKLLIYYTSRLQSGVPSRFSGSGSGTDYSLTIANLEQEDIATYFCQQDDTIPITFGAGTKVELKR
notes: Mutation 1 background; CDRs built

Kd: 0.728 nM | koff: 6.43e-05 s⁻¹ | kon: 88300 M⁻¹ s⁻¹
B2: Mutation 1-20 (antibody, V domains shown)
VH: B1 VH with D27E, I51L, V100I
VL: B1 VL with N30Q, V33L, Q55N, V58I, I96L
notes: as for B1

Kd: 0.0314 nM | koff: 1.13e-06 s⁻¹ | kon: 36100 M⁻¹ s⁻¹
B3: Mutation 1-29 (antibody, V domains shown)
VH: B1 VH with D27E, I51L, V100I
VL: B1 VL with V33I, Q55N, V58I, I96V
notes: as for B1

Kd: 0.678 nM | koff: 4.57e-05 s⁻¹ | kon: 67300 M⁻¹ s⁻¹
B4: Mutation 1-25 (antibody, V domains shown)
VH: QVQLQQPGAELVKPGASVRLSCQTSVETFTTYYIYWVKQRPGEGLEWIGGINPTSGGPVFNEKFKSKATLTVDTSSSTAYMQLSSLTSVDSAVYYCTRSLVRRGYYFDYWGQGTALTVSS
VL: B1 VL with Q55H, V58L, I94L
notes: as for B1

Kd: 0.199 nM | koff: 1.12e-05 s⁻¹ | kon: 56400 M⁻¹ s⁻¹
B5: Mutation 1-24 (antibody, V domains shown)
VH: B4 VH with T30S, I51V, V101L
VL: B1 VL with N30Q, V58L, I94L, I96V
notes: as for B1

Kd: 0.852 nM | koff: 2.89e-05 s⁻¹ | kon: 34000 M⁻¹ s⁻¹
B6: Mutation 1-26 (antibody, V domains shown)
VH: B4 VH with E27N, T30S, I51L, V101I
VL: B1 VL with N30Q, V33L, Q55N, V58L, I94L, I96L
notes: as for B1

Kd: 0.398 nM | koff: 1.36e-05 s⁻¹ | kon: 34000 M⁻¹ s⁻¹
B7: Mutation 1-17 (antibody, V domains shown)
VH: B4 VH with E27N, I51L, V101I
VL: B1 VL with V33I, Q55N, V58L, I94L, I96L
notes: as for B1

Kd: 0.384 nM | koff: 3.72e-05 s⁻¹ | kon: 97900 M⁻¹ s⁻¹
B8: Mutation 1-48 (antibody, V domains shown)
VH: B1 VH with D27E, T30S, I99V, V100L
VL: B1 VL with N30Q, I94V, I96L
notes: as for B1

Kd: 0.384 nM | koff: 3.76e-05 s⁻¹ | kon: 98000 M⁻¹ s⁻¹
B9: Mutation 1-10 (antibody, V domains shown)
VH: B4 VH with E27N, T30S, L100I
VL: B1 VL with N30Q, V33I
notes: as for B1

Kd: 0.384 nM | koff: 3.7e-05 s⁻¹ | kon: 97200 M⁻¹ s⁻¹
B10: Mutation 1-22 (antibody, V domains shown)
VH: B4 VH with E27N, L100V
VL: B1 VL with N30Q, V33I, Q55H, I94V
notes: as for B1

Kd: 0.457 nM | koff: 2.2e-05 s⁻¹ | kon: 48100 M⁻¹ s⁻¹
B11: Mutation 1-39 (antibody, V domains shown)
VH: B4 VH with E27N, L100V, V101L
VL: B1 VL with V33L, I94V, I96L
notes: as for B1

Kd: 0.593 nM | koff: 3.02e-05 s⁻¹ | kon: 50800 M⁻¹ s⁻¹
B12: Mutation 1-50 (antibody, V domains shown)
VH: B4 VH with E27N, T30S, I51V, L100V, V101I
VL: B1 VL with N30Q, V33L, V58L, I94V, I96V
notes: as for B1

Kd: 0.655 nM | koff: 2.87e-05 s⁻¹ | kon: 43800 M⁻¹ s⁻¹
B13: Mutation 1-46 (antibody, V domains shown)
VH: B4 VH with E27D, T30S, I51L, L100I
VL: B1 VL with N30Q, V33I, Q55N, V58I
notes: as for B1

Kd: 0.911 nM | koff: 4.49e-05 s⁻¹ | kon: 49300 M⁻¹ s⁻¹
B14: Mutation 1-30 (antibody, V domains shown)
VH: B4 VH with E27N, T30S, L100V, V101L
VL: B1 VL with N30Q, I94V, I96L
notes: Mutation 1 background; CDRs built; CDR-VL3 cell printed VL, read as V/L

Kd: 0.803 nM | koff: 3.75e-05 s⁻¹ | kon: 46700 M⁻¹ s⁻¹
B15: Mutation 1-42 (antibody, V domains shown)
VH: B1 VH with D27E, T30S, I99L, V100L
VL: B1 VL with N30Q, V58L, I94L, I96L
notes: as for B1

Kd: 0.285 nM | koff: 1.42e-05 s⁻¹ | kon: 49700 M⁻¹ s⁻¹
B16: Mutation 1-2 (antibody, V domains shown)
VH: B1 VH with D27E, T30S, I51L, V100I
VL: B1 VL with N30Q, V33L, V58L, I96L
notes: as for B1

Kd: 0.022 nM | koff: 2.05e-06 s⁻¹ | kon: 93400 M⁻¹ s⁻¹
B17: Mutation 1-12 (antibody, V domains shown)
VH: B1 VH with T30S, I51V, I99V, V100L
VL: B1 VL with N30Q, Q55H, V58I, I94V, I96V
notes: as for B1

Kd: 0.0664 nM | koff: 5.96e-06 s⁻¹ | kon: 89800 M⁻¹ s⁻¹
B18: Mutation 1-21 (antibody, V domains shown)
VH: B4 VH with E27N, T30S, I51V, L100V, V101L
VL: B1 VL with V33L, I94V, I96V
notes: as for B1

Kd: 0.698 nM | koff: 2.37e-05 s⁻¹ | kon: 34000 M⁻¹ s⁻¹
B19: Mutation 1-52 (antibody, V domains shown)
VH: B4 VH with I51L
VL: B1 VL with N30Q, V33I, Q55H, V58I, I94L
notes: as for B1

Kd: 0.677 nM | koff: 4.5e-05 s⁻¹ | kon: 66400 M⁻¹ s⁻¹
B20: Mutation 1-18 (antibody, V domains shown)
VH: B1 VH with I51V, V100L
VL: B1 VL with N30Q, V58I, I96V
notes: as for B1

Kd: 0.739 nM | koff: 4.67e-05 s⁻¹ | kon: 63200 M⁻¹ s⁻¹
B21: Mutation 1-47 (antibody, V domains shown)
VH: B1 VH with I51V, V100I
VL: B1 VL with V33I, Q55N, V58L, I96V
notes: as for B1

Kd: 0.281 nM | koff: 8.8e-06 s⁻¹ | kon: 31300 M⁻¹ s⁻¹
B22: Mutation 1-32 (antibody, V domains shown)
VH: B4 VH with E27D, T30S, I51V, L100V, V101I
VL: B1 VL with N30Q, V33L, Q55N, I94V, I96V
notes: as for B1

Kd: 0.273 nM | koff: 1.01e-05 s⁻¹ | kon: 37200 M⁻¹ s⁻¹
B23: Mutation 1-54 (antibody, V domains shown)
VH: B1 VH with D27N, I51L, V100L
VL: B1 VL with N30Q, Q55N, I96V
notes: as for B1

Kd: 0.0314 nM | koff: 2.66e-06 s⁻¹ | kon: 84600 M⁻¹ s⁻¹
B24: Mutation 1-60 (antibody, V domains shown)
VH: B4 VH with E27N, I51V, V101L
VL: B1 VL with N30Q, V33I, Q55H, I94L, I96V
notes: as for B1

Kd: 0.913 nM | koff: 6.41e-05 s⁻¹ | kon: 70200 M⁻¹ s⁻¹
B25: Mutation 1-23 (antibody, V domains shown)
VH: B4 VH with E27D, T30S, I51L, L100V, V101I
VL: B1 VL with V33I, Q55N, I94V, I96L
notes: as for B1

Kd: 0.615 nM | koff: 4.7e-05 s⁻¹ | kon: 76400 M⁻¹ s⁻¹
B26: Mutation 1-40 (antibody, V domains shown)
VH: B4 VH with E27D, T30S, I51L, L100V
VL: B1 VL with N30Q, V33I, Q55H, I94V
notes: as for B1

Kd: 0.402 nM | koff: 2.61e-05 s⁻¹ | kon: 65000 M⁻¹ s⁻¹
B27: Mutation 1-28 (antibody, V domains shown)
VH: B1 VH with T30S
VL: B1 VL with N30Q, V33I, Q55H, V58I
notes: Mutation 1 background; CDRs built; also called Mutation 148

Kd: 0.808 nM | koff: 3.41e-05 s⁻¹ | kon: 42100 M⁻¹ s⁻¹
B28: Mutation 1-6 (antibody, V domains shown)
VH: B1 VH with T30S, I51V, I99L, V100L
VL: B1 VL with N30Q, Q55N, V58I, I94L, I96V
notes: as for B1

Kd: 0.987 nM | koff: 6.17e-05 s⁻¹ | kon: 62600 M⁻¹ s⁻¹
B29: Mutation 1-34 (antibody, V domains shown)
VH: B4 VH with E27D, T30S, I51L
VL: B1 VL with N30Q, V33I, Q55H, V58L, I94L
notes: as for B1

Kd: 0.223 nM | koff: 1.45e-05 s⁻¹ | kon: 65100 M⁻¹ s⁻¹
B30: Mutation 1-16 (antibody, V domains shown)
VH: B4 VH with E27N, T30S
VL: B1 VL with N30Q, V33I, Q55N, I94L
notes: as for B1

Kd: 0.028 nM | koff: 2.03e-06 s⁻¹ | kon: 72400 M⁻¹ s⁻¹
B31: Mutation 1-27 (antibody, V domains shown)
VH: B1 VH with D27N, I51V, V100L
VL: B1 VL with V33L, V58I, I96V
notes: as for B1

Kd: 0.362 nM | koff: 2.49e-05 s⁻¹ | kon: 69000 M⁻¹ s⁻¹
B32: Mutation 1-57 (antibody, V domains shown)
VH: B1 VH with D27E, T30S, I51V, I99V, V100L
VL: B1 VL with V33L, I94V, I96V
notes: as for B1

Kd: 0.873 nM | koff: 7.78e-05 s⁻¹ | kon: 89100 M⁻¹ s⁻¹
B33: Mutation 1-5 (antibody, V domains shown)
VH: B4 VH with E27N, I51L, L100V, V101I
VL: B1 VL with V33I, Q55H, V58L, I94V, I96L
notes: as for B1

Kd: 0.85 nM | koff: 5.38e-05 s⁻¹ | kon: 63300 M⁻¹ s⁻¹
B34: Mutation 1-31 (antibody, V domains shown)
VH: B4 VH with E27N, I51L, L100V
VL: B1 VL with Q55H, I94V
notes: as for B1

Kd: 0.719 nM | koff: 2.75e-05 s⁻¹ | kon: 38200 M⁻¹ s⁻¹
B35: Mutation 1-4 (antibody, V domains shown)
VH: B4 VH with E27N, T30S, L100V
VL: B1 VL with N30Q, V33I, Q55H, I94V
notes: as for B1

Kd: 0.768 nM | koff: 3.85e-05 s⁻¹ | kon: 50200 M⁻¹ s⁻¹
B36: Mutation 1-36 (antibody, V domains shown)
VH: B1 VH with D27E, T30S, V100L
VL: B1 VL with N30Q, V58I, I96L
notes: as for B1
